The DeepSol protein solubility set

Test: soluble on expression in E. coli; label from the status in PepcDB or PDB records

| Sequence | soluble on expression in E. coli |
| --- | --- |
| MLTSHFPLPFAGHRLHIVDFDASSFREHDLLWLPHHDRLRSAGRKRKAEHLAGRIAAVHALREVGVRTVPGMGDKRQPLWPDGLFGSISHCATTALAVISRQRIGIDIEKIMSQHTATELAPSIIDSDERQILQASLLPFPLALTLAFSAKESVYKAFSDRVTLPGFNSAKVTSLTATHISLHLLPAFAATMAERTVRTEWFQRDNSVITLVSAITRVPHDRSAPASILSAIPR | not soluble |
| MSLRDESRLDKYVIKEILRINRHLPRRRKTLEELLREERPHVVNRDGTKHYFDRDELERLADILPRYLHGRLKLPILIELGYSGAAVIRGKAEVRVVCEVLGEEWRFSQDRVELNMLDVRKLRREFPTATQYMFSTEYIMGRPKVERREGHHHHHH | soluble |
| MGSDKIHHHHHHMRNILEIVKFWFYDYDVTATEIKANVIKIHCNNKSYILKEKGSIKQLLVEINVLEQLEEKGVKAQKLVKTSNSEKYVVYKERYYCLYEYVVGSVLEIKDPENLKNLGSLIGEEIAKLHQALNSVNSNNELVKRELYKLVYEWALPNLEKNEHVDQDVVRTMNQIHSDFKKTITSLRKQIIHRDMHLSNVIFKDNEFQGFIDFELLERNVRVFDLCYCCTSILSELHSDEELRGKWQHIISKIFEGYNKQSILTREELQAIWYVMLSIQVIFITYFVQLPDLLKLNEEMFFWIFANKETIEELIERSVQI | not soluble |
| MSSMSESDSYQSSQLTSEPDLVALDAKIMAVMDGTEELEREIGKMMALQQAISDYKKSHQHRTQRTKEKLTDMSKDLTITGKNIVKSCEERLKQISDVTEPYINSGISSVEDHTSSVVERCIQMLGAISGLGGAMKKTEGLSSKVLEHHRKLAIMEHKQADAISRYEKAVGVQKLVREHPAGDPLHELANLLGIFLALQQSPNTSEYYKKVFDGFGGRVTALFAEIDRPKTAKSLATRSGMSTLSSMSNGEINLESIKDNTEIPVDTCQ | not soluble |
| MQLDPPEPGFYDDPDLSYSIEKSITNWDEKRHEWFKSHPSFKPGSENRILMVTGSQSSPCKNPIGDHLLLLRCFKNKVDYARIHGHDIFYSNSLLHPKMNSYWAKLPVVKAAMLAHPFMD | not soluble |
| MGRKNSPSANKELNELIAQYETARAENRQLYLDGDQLADIADQYAAERKFNEAQEVITYGLHLHPDSTDLLVEQAYLYLDTGKIPLAKKVVESITDEYDTDVKMLKAELMLNEGQLENARNVLDTIEDADELETIINIVYLYMDMGYPEAAKEWLDKGAPRHGKKEDFMAVMADYLTGTNQLEAASTFYNQLIDIDPYNASYWVGLAKCRFAAEDCEKAIEACDFALAADDKCGEAYAYRGHSYFYLNNSDAAIEDYKKAIKYKALPPEMGYMFLGLTYSNKEAWKEADDYYQRVIDRFIEEGLGNSPLLIDTYTNKAVAASRLGKYEEAHQLCKKAIAIQPDDPAIYLAEGKLYIQENQKKKAVKSFDKALTMEPSAEMWYMVASAYSDAEYLYQAKLCFQEAYRIDPNYADIAEKLSVLSLMHNEIDDFFKYNNESEHPISEDIILELLSRPNQTEEGEQMLREVWERMKKEKGNN | not soluble |
| DDDDEEEDDFVYFNFNKEKEEKNKNSIHPNDFQIYNSLKYKYHPEYQYLNIIYDIMMNGNKQSDRTGVGVLSKFGYIMKFDLSQYFPLLTTKKLFLRGIIEELLWFIRGETNGNTLLNKNVRIWEANGTREFLDNRKLFHREVNDLGPIYGFQWRHFGAEYTNMYDNYENKGVDQLKNIINLIKNDPTSRRILLCAWNVKDLDQMALPPCHILCQFYVFDGKLSCIMYQRSCDLGLGVPFNIASYSIFTHMIAQVCNLQPAQFIHVLGNAHVYNNHIDSLKIQLNRIPYPFPTLKLNPDIKNIEDFTISDFTIQNYVHHEKISMDMAA | soluble |
| MKTLNLLAPVSQLLKPLRRQSSSRVNALLINVPRVQLSKGKNKYLLMMIHMHGLTRFGRTIVRGSASKDHEEIFEEIQKEMDKIGICAKCLGGGFISNKEDKKVMKIYGCCKTFGEAPHGRTKDILLSWTKFQHYNIILPKKNLNAYQLEHHHHHH | not soluble |
| MGSDKIHHHHHHMNIFDILRDYLLVQVDKYNLNMDMISIVSKSLSSKEAIGNTKRKDFPIIVGKEIMLEADFKGAKGQAFTSTPSTFEGSLKDILSLDLHDNPHDRSLFIASLNAVMKYLGKTDRTIHCKNNEPEVCAKKFPEFIKMEFGNPKVAIIGYQPAIIDNIKDFFETRVLDLNPEFVDTIQYNVKIEDGIRDYEDVISWADLVICTGSTLCNNSIINFLSLNKPVYYYGTTIAGASNILGLKRLCFCSK | not soluble |
| MAHHHHHHMETIQELILSEENKTNIAVLNLGTNDRRNAVLILETALHLVEKYLGKIINTSYLYETVPEYIVLDKKESCEKINKDCRIYDVNYINELMQNLEESKYEENKELIDKCEEYETFLKNGKVDNSILKEVNVENYLLECNNIIVKNDEIMKNNLSKYKDKYYTSYFYNLTVVVKTFVNDPLSMLVVIKYIEELMKRENVKEKEKFENRIIDIDILFFNDFTIFMKNIKLEKNMIYKILSKYIHLERDIKNGNDNMSKVNMDKDINLNNNNNIKKKNNNDIDCDCVDQKMNNHVNNKNYINSFRDPQEIINNMVDNIEFLSIPHVYTTHRYSILLCLNDMIPEYKHNVLNNTIRCLYNKYVSRMKEQYNINIKENNKRIYVLKDRISYLKEKTNIVGILNVNYDSFSDGGIFVEPKRAVQRMFEMINEGASVIDIGGESSGPFVIPNPKISERDLVVPVLQLFQKEWNDIKNKIVKCDAKPIISIDTINYNVFKECVDNDLVDILNDISACTNNPEIIKLLKKKNKFYSVVLMHKRGNPHTMDKLTNYDNLVYDIKNYLEQRLNFLVLNGIPRYRILFDIGLGFAKKHDQSIKLLQNIHVYDEYPLFIGYSRKRFIAHCMNDQNVVINTQQKLHDEQQNENKNIVDKSHNWMFQMNYMRKDKDQLLYQKNICGGLAIASYSYYKKVDLIRVHDVLETKSVLDVLTKIDQV | not soluble |
| MGSDKIHHHHHHMGRYLERTEHISRFSQAHYFFSIDAPKSVKKEHILESVLNMAGSYVEYLGSGNKMETMEVAYYIGLNEFNASSIKHSIVKARENARGAKDSISSELWQSINTFYHSINLMDRATFNEMGIYEFSKNVLQNSSVIKGNIDNTLLHEEAWSIIHLGQHIERTTQVIRMIVTKINDINRIPKKEYYNMIELFENVNLLKSTEAYDMSKIFYREVPSVSHSLEFLTLNRNFPKSIVYNLRHIEHCLLRITNLSKHETNSLEFYASKLLCTVKYTSIQDIEKEPLAFYNDLLNKVAKLADMLETKYLQY | not soluble |
| MSLHINQLLQHANSDLPLLQANFGLERESLRINKTNHRLAQTPHPTALGSRQFHPYIQTDYSESQMELITPVAHSSKEVLRFLGAITDVAERSIDQNQYLWPLSMPPQITEDEIEIAQLEDDFEFSYRQYLDKKYGKILQSISGIHYNMELGADLMNELFELSGYQSFIDFKNDLYLKVAQNFLNYRWFLTYLYGASPLAEKGFLNEELSQTVRSIRNSHLGYVNTDDIKVPFDSLENYISSIEHYVKSGALSAEKEFYSAVRLRGSKHNRDYLTKGITYLEFRCFDLNPFNNRGITQETIDSVHLFILAMLWLDTPKKLNQALDKAQKLNDKIALSHPLEKLPKENSASLIIEAMEALIKHFKLPSYYDDLLIAIKKQVENPKLTLSGRLFEHIKHASLEHFGQKKGQDYHNYAWQNYYALKGYENMELSTQMLLFDTIQKGIHFEILDENDQFLKLWHNDHIEYVKNGNMTSKDNYVIPLAMANKVVTKKILRENGYPVPAGAEFDNKDEALRYYSQIKNKPIVVKPKTTNFGLGISIFETAASHNDYEKALDIAFIEDYSVLVEEFIPGTEYRFFILDGKCEAVLLRVAANVVGDGHSTVRQLVAQKNRDPLRGREHRSPLEIIDLGDIELLMLQQEGYTLEDILPKGKKVNLRGNSNISTGGDSIDVTETMDPSYKQLAANMATAMGAWVCGVDLIIPDTNLKASKGKPNCTCIELNFNPSMYMHTYCYQGPGQVITGKILAKLFPEISTKIEGHHHHHH | soluble |
| MVSLRSGKRVSRPSPSTPLEKPAETSTNPMETPKRAVKGQKTVEEKEKLPISLRKSERLAKNSGENSSAEIAEEHKEIVAPSQENSVDDDAESTQLSVDVFADPSDFEDDDDEVVPETDYEDNNEEPKNDQNPVEIPDNSDSDDDEPMEISSKNPVTSIENPENSDSDDDEPMEATSKAPEMSVAEPKSIIEKLLEKKAEKSAKLAAKKLKKRSKKKEAKKISDGVFQVKMKKSKAKFNVVTLKAGVQNILEPQINFREELLKSRTAGTRLADTEKFLQRGKWVSKR | soluble |
| MNDISAPEQYDLQTAALKVPPHSIEAEQAVLGGLMLDNNAWERVLDQVSDGDFYRHDHRLIFRAIAKLADQNSPIDVVTLAEQLDKEGQTSQVGGLGYLSELAKNTPSVANIKAYAQIVRARATLRQLIGISTEIADSAFNPEGRTAEEILDEAERQIFQIAEARPKTGGPVSVNDLLTKAIDRIDTLFNSDNAITGLSTGYTDLDEKTSGLQPADLIIVAGRPSMGKTTFAMNLVENAVLRSDKVVLVYSLEMPGESLIMRMLSSLGRIDQTKVRAGRLDDDDWPRLTSAVNLLNDRKLFIDDTAGISPSEMRARTRRIVREHGEIGMIMIDYLQLMQIPGSSGDNRTNEISEISRSLKALAKEFNCPVIALSQLNRSLEQRPNKRPINSDLRESGAIEQDADVIMFVYRDEVYHPETEHKGIAEIIIGKQRNGPIGTTRLAFIGKYTRFENLAPGSYNFDDD | not soluble |
| MSLHTAQKTRKGEHKWAAVVGLEIHAQISSNSKLFSGSQVRFSAPPNSLVSFFDASLPGTLPVLNRRCVEAAVMTGLALNCHINKKSLFDRKHYFYADLPAGYQITQQRLPIAVNGSLIYGVCAGKKQSQVIPKTVRIKQIQLEQDSGKSLHDNLRSQTLIDLNRAGVGLLEVVLEPDMSCGEEAATAVRELQLILQALGTSQANMAEGQLRVDANISVHHPGEPLGVRTEVKNLNSIRFLAKAIDYEIQRQINELENGGEILNETRSFHHKLGCTMSMRDKEGKQDYRFMPEPNLPPLVLYDATSLPAGADPQQVINIDQIRETLPELPSVTREKLVQQYGMLLEHSFTLLNEVGLLEFFQNVIKETRAEPKKVTSWVLNTFLGYLKQQNLAVSESPVTPSALAELLDLLDSRTISSSAAKQVFEELWKREGKTPGQIVSEKQLELMQDQGALEQLCHSVMEAHPQVVMDVKNRNPRAINKLIGLVRKATQSRADPVMIKEILEKKLSLEGHHHHHH | soluble |
| MAHHHHHHMQTPNSECVGPESPKAGIASSCQGCPNASICASMPKGPDPDIELIRQRLSGVKRTVMVISGKGGVGKSTLTKELAFALGQMGLNVALVDLDICGPSLPRLMGVRGEDAHQSAAGIEPVLVDETVSMISMHYLLGDKNEAVLFRGPRKNGVIKMFLKDVIWGDVDIMLIDTPPGTSDEHITVASILQQCGGVTGAILITTPQLVAEADVKREVKFSHKAKLHLLGIVENMSGFVCPNCKESSVIFPRANSQGAGKRLSDEFGVPFWGEVPLDPVLMKACEEGVSLTDIVDGKSPTIEILQSVAAKLVASLEIE | soluble |
| MVQDWEFIVSFLKINWILMNHVTAPYSYVDVSYDNIPFVGKIPIIGKDGTSSRLGVSPFYPADGNPSNPFPPIYKARPLPLHVPEPQDVVAVPLDEEALHGEPLFPPELILPSELAAEEAAKKKALETKKPENPFADVVETNEQLDTVHWPTAVSTSEIEGEDSQGKNMVQEDEPQRSVIIDEAREKPMQPFEAAKISIGANDRPKNPFRSRRILMERF | not soluble |
| MGSDKIHHHHHHADILSCTVDGDILKAEPEIDNESVTLTVKSDADITNLAPVFTLTPGATITPASGSAFDFTTPRTYTVTSEDGHWTKTYTVRCIVSGVSTEYHFEHITMEPKNGRYQIFYDFTSNGDSVTWASGNAGFALTNNKLEPLDFPTMQDDNGYVGKCAKLVTRSTGSFGSGFGMPIAAGNLFIGTFDLLNAIPDARKGTRLGRPFDHVPTYLSGYYKYKAGESYKVNGEEVKGKKDQCDIYAIFYETDENVKYLDGFNGLTSPNLISVARISDQKETDEWTRFYIPFVAKPGKVIDKDKLAKGGYQLSIVFSSSLKGDVFEGAEGSTLWIDEVEIIQSGEN | not soluble |
